In US20230416760A1 (CURATORS OF THE UNIVERSITY OF MISSOURI, published 2023):

T1: heteromeric acetyl-coenzyme A carboxylase (hetACCase) of Arabidopsis thaliana (Arabidopsis thaliana)
T1 chain 1: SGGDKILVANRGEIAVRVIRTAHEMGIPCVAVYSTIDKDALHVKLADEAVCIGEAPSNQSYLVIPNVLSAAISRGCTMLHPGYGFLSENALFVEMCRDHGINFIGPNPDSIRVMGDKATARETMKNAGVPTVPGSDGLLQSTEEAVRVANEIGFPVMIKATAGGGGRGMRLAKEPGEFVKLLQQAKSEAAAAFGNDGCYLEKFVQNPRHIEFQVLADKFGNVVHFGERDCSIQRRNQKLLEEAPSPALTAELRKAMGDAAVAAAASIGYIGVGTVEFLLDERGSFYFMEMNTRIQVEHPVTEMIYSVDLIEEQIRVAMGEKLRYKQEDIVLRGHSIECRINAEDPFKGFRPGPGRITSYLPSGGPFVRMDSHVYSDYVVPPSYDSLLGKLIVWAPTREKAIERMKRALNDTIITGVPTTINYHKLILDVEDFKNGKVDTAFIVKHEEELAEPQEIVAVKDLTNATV
T1 chain 2: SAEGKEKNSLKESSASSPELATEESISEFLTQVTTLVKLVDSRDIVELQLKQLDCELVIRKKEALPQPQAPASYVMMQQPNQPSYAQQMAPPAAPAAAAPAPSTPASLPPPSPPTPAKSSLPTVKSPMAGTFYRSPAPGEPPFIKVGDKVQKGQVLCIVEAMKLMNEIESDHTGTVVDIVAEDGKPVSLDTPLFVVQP
T1 chain 3: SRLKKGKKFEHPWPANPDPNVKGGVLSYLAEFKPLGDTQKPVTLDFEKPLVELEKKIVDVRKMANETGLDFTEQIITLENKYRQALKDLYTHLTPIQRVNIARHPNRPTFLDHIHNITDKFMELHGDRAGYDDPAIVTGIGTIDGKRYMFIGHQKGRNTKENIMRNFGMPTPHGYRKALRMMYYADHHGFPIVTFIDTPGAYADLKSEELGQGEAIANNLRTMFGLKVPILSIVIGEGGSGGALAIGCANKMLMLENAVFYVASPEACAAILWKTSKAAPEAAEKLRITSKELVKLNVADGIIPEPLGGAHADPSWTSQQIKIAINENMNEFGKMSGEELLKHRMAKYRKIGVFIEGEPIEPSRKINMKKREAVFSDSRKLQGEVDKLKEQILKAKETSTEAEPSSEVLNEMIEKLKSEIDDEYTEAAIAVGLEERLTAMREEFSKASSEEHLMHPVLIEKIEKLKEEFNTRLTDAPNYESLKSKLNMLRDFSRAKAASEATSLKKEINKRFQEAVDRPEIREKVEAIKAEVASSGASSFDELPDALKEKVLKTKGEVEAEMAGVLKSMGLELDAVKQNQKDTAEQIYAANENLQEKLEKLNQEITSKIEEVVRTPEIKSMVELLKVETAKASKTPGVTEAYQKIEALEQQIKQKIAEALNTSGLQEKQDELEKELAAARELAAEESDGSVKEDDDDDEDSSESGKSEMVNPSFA
T1 chain 4: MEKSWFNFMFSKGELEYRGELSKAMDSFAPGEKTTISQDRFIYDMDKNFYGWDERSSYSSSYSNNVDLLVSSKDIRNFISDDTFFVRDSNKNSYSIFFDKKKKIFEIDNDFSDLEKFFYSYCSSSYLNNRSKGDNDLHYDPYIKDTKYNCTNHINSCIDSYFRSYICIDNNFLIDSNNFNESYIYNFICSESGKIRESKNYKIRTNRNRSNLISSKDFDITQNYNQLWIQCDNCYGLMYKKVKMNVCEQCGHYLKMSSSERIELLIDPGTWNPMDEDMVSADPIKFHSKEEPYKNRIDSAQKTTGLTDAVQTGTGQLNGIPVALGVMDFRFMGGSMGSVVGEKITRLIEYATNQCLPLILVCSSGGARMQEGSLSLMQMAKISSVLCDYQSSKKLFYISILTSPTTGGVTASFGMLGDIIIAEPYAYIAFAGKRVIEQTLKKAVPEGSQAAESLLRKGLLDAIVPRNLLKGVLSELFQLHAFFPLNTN

B1: BADC2 (AT1G52670), Single hybrid motif protein, Arabidopsis thaliana (other)
chain: TTLRSVKAIQLSTVPPAETEAIADVKDSDETKSTVVNTHLMPKSSEVEALISEITDSSSIAEFELKLGGFRLYVARKLTDESSPPPQQIQPVVAASATPEGVHTNGSATSSSLAITKTSSSSADRPQTLANKAADQGLVILQSPTVGYFRRSKTIKGKRTPTICKEKDIVKEGQVLCYIEQLGGQIPVESDVSGEIVKILREDGEPVGYNDALITVLPSFPGIKKLQ
notes: His-tagged or untagged from E. coli, bait/prey fusion in yeast two-hybrid, native protein in co-IPs; also called AtBADC2
B2: BADC1 (AT3G56130), biotin/lipoyl attachment domain-containing protein, Arabidopsis thaliana (other)
chain: AKAAKSSTTTISDGSSDASVSDGKKTVRRITFPKEVEALVHEMCDETEVAVLQLKVGDFEMNLKRKIGAATNPIPVADISPTVAPPIPSEPMNKSASSAPSPSQAKPSSEKVSPFKNTSYGKPAKLAALEASGSTNYVLVTSPAVGKFQRSRTVKGKKQSPSCKEGDAIKEGQVIGYLHQLGTELPVTSDVAGEVLKLLSDDGDSVGYGDPLVAVLPSFHDINIQ
notes: Recombinant and yeast two-hybrid constructs were made without the transit peptide predicted by TargetP; also called AtBADC1

Experiments:
[1] = test system: all three BADCs (recombinant BADC1, BADC2, BADC3)
[2] = biological target: BCCP2 (AT5G15530), biotin carboxyl carrier protein isoform 2, Arabidopsis thaliana (Arabidopsis thaliana) (UniProt Q9LLC1); assay: co-IP from A. thaliana chloroplast lysate with anti-BCCP2 antibody, LC-MS/MS, n=7
[3] = biological target: the molecule itself; assay: intact mass analysis and non-reducing SDS-PAGE of purified recombinant protein
[4] = biological target: α-carboxyltransferase (α-CT) subunit of hetACCase, AT2G38040, Arabidopsis thaliana (Arabidopsis thaliana) (UniProt Q9LD43); assay: co-IP from A. thaliana chloroplast lysate with anti-α-CT antibody, LC-MS/MS, n=7
[5] = biological target: T1, heteromeric acetyl-coenzyme A …; assay: inhibition of ACCase activity in 20-day-old A. thaliana leaf extracts by increasing concentrations of recombinant BADC1
Protocol: ACCase activity was monitored in vitro in 20-day-old A. thaliana leaf extracts with increasing concentrations of recombinant BADC1. Specific activity was determined for each experiment and 0 μM controls were normalized to 1. Specific activity values for controls ranged from 0.84-2.00 nmol/min/mg. Each data point represented the average of four biological replicates, with each biological replicate comprised of four light-adapted leaves.

| Molecule | hetACCase activity in ten-day-old A. thaliana silique extracts (H14CO3 incorporation), 10 µM recombinant protein [1] | replicates (of seven) of the co-IP in which the protein was present [2] [replicates] | binding result [3] | replicates (of seven) of the co-IP in which the protein was present [4] [replicates] | Ki [5] [µM] |
| --- | --- | --- | --- | --- | --- |
| heteromeric acetyl-coenzyme A carboxylase (hetACCase) of Arabidopsis thaliana | all three BADCs inhibited hetACCase activity by 25 to 37% | – | – | – | – |
| B1 | – | 6 | no binding | 2 | – |
| B2 | – | 7 | – | 1 | ~4.3 |
